In publication PMC12090727, “Cell binding, uptake, and infection of influenza A virus using recombinant antibody-based receptors” (Journal of Virology, 2025):

Biological target: T1, HA-hFc probe: H1N1 A/California/04/2009 HA ectodomain fused to human IgG1 Fc (Influenza A virus A/California/04/2009 …, UniProt C3W5S1)
T1 construct: also called HA-probe; HA-human Fc probe; source: High Five insect cells (recombinant baculovirus), purified (HiTrap Protein G); not shown: Fc (human IgG1), C-terminal, kept
Experiment: flow cytometry on cells
Settings: one partner purified

B1: fTfR-5J8 (Flag+) mutant D100bL (scFv, V domains shown)
VH: EVQLVESGPGLVKPSDILSLTCAVSGYSISSNYYWGWIRQPPGKGLEWIGSIYHSGSTYYKPSLESRLGISVDTSKNQFSLKLSFVSAADTAVYYCARHVRSGYPLTAYYFDKWGQGTLVTVSS
VL: SYVLTQPPSVSVAPGETARISCGGNNIGTKVLHWYQQTPGQAPVLVVYDDSDRPSGIPERFSGSNSGNTATLTISRVEVGDEADYYCQVWDISTDQAVFGGGTKLTVL
notes: also called D100bLeu
binding result: binds
